Experimental data reported in US20220387487A1, “COMPOSITIONS AND METHODS FOR TREATMENT OF CANCER” (Aleta Biotherapeutics Inc., priority 2019, published 2022).
Where a chain is given by its changes, count along the chain named. Names and notes keep the numbering of the source.

B1: V16F: CD19 variant (protein)
chain: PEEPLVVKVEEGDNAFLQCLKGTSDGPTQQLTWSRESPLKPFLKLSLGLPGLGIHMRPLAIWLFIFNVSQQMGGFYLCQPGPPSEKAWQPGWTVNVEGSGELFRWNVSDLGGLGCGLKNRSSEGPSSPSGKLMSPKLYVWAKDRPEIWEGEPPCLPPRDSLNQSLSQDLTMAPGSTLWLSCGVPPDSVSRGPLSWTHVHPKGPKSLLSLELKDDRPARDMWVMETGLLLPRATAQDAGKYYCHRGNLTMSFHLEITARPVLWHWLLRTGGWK
B2: G269I: CD19 variant (protein)
chain: B1 chain with F16V, G269I
B3: L59E: CD19 variant (protein)
chain: B1 chain with F16V, L59E
B4: W262H: CD19 variant (protein)
chain: B1 chain with F16V, W262H
B5: K212A: CD19 variant (protein)
chain: B1 chain with F16V, K212A
B6: G226S: CD19 variant (protein)
chain: B1 chain with F16V, G226S
B7: F64V: CD19 variant (protein)
chain: B1 chain with F16V, F64V
B8: W264N: CD19 variant (protein)
chain: B1 chain with F16V, W264N
B9: W62E: CD19 variant (protein)
chain: B1 chain with F16V, W62E
B10: W264A: CD19 variant (protein)
chain: B1 chain with F16V, W264A
B11: A257R: CD19 variant (protein)
chain: B1 chain with F16V, A257R
B12: R215W: CD19 variant (protein)
chain: B1 chain with F16V, R215W
B13: L20G: CD19 variant (protein)
chain: B1 chain with F16V, L20G
B14: W262D: CD19 variant (protein)
chain: B1 chain with F16V, W262D
B15: F64G: CD19 variant (protein)
chain: B1 chain with F16V, F64G
B16: V260S: CD19 variant (protein)
chain: B1 chain with F16V, V260S
B17: G269L: CD19 variant (protein)
chain: B1 chain with F16V, G269L
B18: W262K: CD19 variant (protein)
chain: B1 chain with F16V, W262K
B19: I255V: CD19 variant (protein)
chain: B1 chain with F16V, I255V
B20: R57G: CD19 variant (protein)
chain: B1 chain with F16V, R57G
B21: W264D: CD19 variant (protein)
chain: B1 chain with F16V, W264D
B22: L59S: CD19 variant (protein)
chain: B1 chain with F16V, L59S
B23: F66R: CD19 variant (protein)
chain: B1 chain with F16V, F66R
B24: V16W: CD19 variant (protein)
chain: B1 chain with F16W
B25: A257K: CD19 variant (protein)
chain: B1 chain with F16V, A257K
B26: L261K: CD19 variant (protein)
chain: B1 chain with F16V, L261K
B27: W62S/F64R/F66S: CD19 variant (protein)
chain: B1 chain with F16V, W62S, F64R, F66S
B28: E224G/G226R/L228F: CD19 variant (protein)
chain: B1 chain with F16V, E224G, G226R, L228F
B29: W62T/F64V/F66P: CD19 variant (protein)
chain: B1 chain with F16V, W62T, F64V, F66P
B30: W62E/F64R/F66P: CD19 variant (protein)
chain: B1 chain with F16V, W62E, F64R, F66P
B31: W62E/F64V/F66V: CD19 variant (protein)
chain: B1 chain with F16V, W62E, F64V, F66V
B32: W62E/F64W/F66R: CD19 variant (protein)
chain: B1 chain with F16V, W62E, F64W, F66R

Test system: FMC63
Test: CD19 variant binding to anti-CD19 antibody FMC63 (score)
Settings: Table 1A, CD19 single mutants (positions of SEQ ID NO:2)

Sequence of FMC63 (as listed by the source): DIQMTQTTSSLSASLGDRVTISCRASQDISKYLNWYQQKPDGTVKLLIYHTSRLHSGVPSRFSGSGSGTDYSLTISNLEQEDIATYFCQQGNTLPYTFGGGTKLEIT
Sequence of FMC63 (as listed by the source): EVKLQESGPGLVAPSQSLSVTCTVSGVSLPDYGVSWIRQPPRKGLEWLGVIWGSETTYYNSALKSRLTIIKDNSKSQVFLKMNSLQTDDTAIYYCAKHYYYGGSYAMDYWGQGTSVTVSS

Row | Molecule | FMC63 Binding Score
1 | B1 | 7. ± 1.
2 | B2 | 6.7 ± .8
3 | B3 | 6.3 ± .5
4 | B4 | 6.7 ± 1.
5 | B5 | 6.1 ± .6
6 | B6 | 6.1 ± .4
7 | B7 | 6. ± .4
8 | B8 | 9. ± 1.3
9 | B9 | 6.4 ± .7
10 | B10 | 6.3 ± .5
11 | B11 | 6.1 ± .5
12 | B12 | 7.1 ± 1.1
13 | B13 | 5.7 ± .2
14 | B14 | 8.3 ± .8
15 | B15 | 6. ± .2
16 | B16 | 5.8 ± .3
17 | B17 | 6.1 ± .4
18 | B18 | 8.2 ± .7
19 | B19 | 6.4 ± .4
20 | B20 | 5.7 ± .2
21 | B21 | 6.2 ± .6
22 | B22 | 6.4 ± .4
23 | B23 | 6. ± .3
24 | B24 | 6.7 ± 1.
25 | B25 | 6.1 ± .5
26 | B26 | 6.2 ± .6

Same assay, conditions: Table 1B, CD19 triple mutants

Row | Molecule | FMC63 Binding Score
27 | B27 | 13.2 ± 2.1
28 | B28 | 12.8 ± 1.7
29 | B29 | 16.6 ± 5.5
30 | B30 | 16.5 ± 5.5
31 | B31 | 13.4 ± 2.5
32 | B32 | 14.2 ± 3.2
